Results reported in patent US9433687B2, “Anti-Notch3 antibodies and antibody-drug conjugates” (Pfizer Inc., priority 2012, dated 2016).

T1: human Notch1 NRR-Fc (Homo sapiens, UniProt P46531)
T1 construct: Expression constructs encoding human Notch1 and Notch2 NRR regions, fused with human IgG1 Fc fragments; made in house; host or cells: CHO-PACE cells
T1 sequence (P46531 1446-1733 limits assumed): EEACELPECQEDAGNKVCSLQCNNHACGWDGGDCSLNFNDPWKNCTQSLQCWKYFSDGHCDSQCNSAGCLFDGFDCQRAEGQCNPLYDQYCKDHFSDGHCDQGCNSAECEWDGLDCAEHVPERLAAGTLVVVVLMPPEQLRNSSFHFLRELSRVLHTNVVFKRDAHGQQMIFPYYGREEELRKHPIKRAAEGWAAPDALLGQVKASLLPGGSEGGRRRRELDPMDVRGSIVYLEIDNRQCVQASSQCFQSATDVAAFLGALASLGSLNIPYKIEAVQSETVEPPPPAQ

T2: human Notch2 NRR-Fc (Homo sapiens, UniProt Q04721)
T2 construct: Expression constructs encoding human Notch1 and Notch2 NRR regions, fused with human IgG1 Fc fragments; made in house; host or cells: CHO-PACE cells
T2 sequence (Q04721 1425-1677 limits assumed): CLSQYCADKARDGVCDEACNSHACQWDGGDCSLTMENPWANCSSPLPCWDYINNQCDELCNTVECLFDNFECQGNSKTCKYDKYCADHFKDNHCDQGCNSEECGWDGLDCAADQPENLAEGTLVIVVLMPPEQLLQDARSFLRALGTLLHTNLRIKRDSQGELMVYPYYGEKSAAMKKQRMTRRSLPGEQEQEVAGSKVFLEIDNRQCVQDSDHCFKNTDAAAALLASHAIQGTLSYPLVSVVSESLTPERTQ

T3: human Notch3 NRR recombinant protein (Homo sapiens, UniProt Q9UM47)
T3 construct: made in house
T3 sequence (Q9UM47 with tags, fused parts or gaps): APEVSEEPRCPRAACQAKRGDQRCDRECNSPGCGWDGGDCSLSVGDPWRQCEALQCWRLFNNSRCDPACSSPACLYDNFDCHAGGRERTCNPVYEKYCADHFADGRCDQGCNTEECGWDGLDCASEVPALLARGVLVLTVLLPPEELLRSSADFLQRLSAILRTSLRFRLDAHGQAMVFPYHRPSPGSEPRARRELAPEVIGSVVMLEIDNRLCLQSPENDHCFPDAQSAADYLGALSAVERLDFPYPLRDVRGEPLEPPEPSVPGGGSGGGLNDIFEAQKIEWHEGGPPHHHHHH

B1: ch75-mc0131 (conjugate)
VH: QVKLLQSGAALVKPGASVKMSCKASGYAFTDYWVTWVKQSHGKSLEWIGEISPNSGGTNFNEKFKGKATLTVDKSTSTAYMELSRLTSEDSAIYYCTRGEIRYNWFAYWGQGTLVTVSS
VL: DIQMTQSPSSLSASVGDRVTITCKASQNVGNNIAWYQQKPGKAPKLLIYYASNRYTGVPSRFSGSGYGTDFTLTISSLQPEDFATYYCQRLYNSPFTFGGGTKVEIK
B2: ch28: rat-human chimeric anti-Notch3 antibody 28, rat variable regions fused with human IgG1 and human kappa (antibody, V domains shown)
VH: EVQLVESGGGLVQPGRSLTLSCVASGFTFRDYGMTWIRQAPGKGLTWVAYISSGSNYIYYAEAVKGRFTISRDNAKNTLYLQMTSLRSEDTALYFCTRRGPFVLDAWGQGASVTVSS
VL: DIQMTQSPSFLSASVGDRVTINCKASQSINRYLHWFQQKLGEAPKLLIYNANGLQTGIPSRFSGSGSGTDFTLTISSLQSEDVATYFCLQHNTWPDTFGAGTKLELK
B3: ch28-vc0101: ch28 conjugated to vc0101 linker-payload (conjugate)
VH: B2 VH
VL: B2 VL

How the values were obtained:
[1] = test system: N87 gastric xenografts; assay: N87 gastric xenograft model; assay type: in vivo, mouse; conditions: 5 mg/kg iv Q4dx4; FIG. 16D, 16E
Protocol: Similar in vivo experiments were performed with the N87 gastric cancer cell line as described above. To generate xenografts, nude (Nu/Nu) female mice were implanted subcutaneously with 8×10^6 N87 cells in 50% Matrigel (BD Biosciences).
The N87 gastric model was also dosed intravenously Q4d×4 with PBS vehicle, rat-human chimeric anti-Notch3 ADCs and control huNeg-8.8 ADCs, at a dose of 5 mg/kg as provided in FIG. 16D.
The N87 gastric model was also dosed intravenously Q4d×4 with PBS vehicle and rat-human chimeric anti-Notch3 ADCs ch28-mc0131, ch75-mc0131, ch28-m(H2O)c-0131 and ch75-m(H2O)c-0131 at a dose of 5 mg/kg as provided in FIG. 16E.

[2] = test system: HCC2429 (lung cancer); assay: In vitro cytotoxicity (MTS), HCC2429; assay type: cell-based, human; conditions: Table 13; four days; LP = lacked potency
Protocol: (§1) The effects of anti-Notch3 ADCs were assessed on 1) cell lines endogenously expressing Notch3 protein: HCC2429 (lung cancer), OVCAR3 (ovarian cancer) and MDA-MB-468 (breast cancer), 2) cell lines engineered to over-express full length human Notch3 protein: MDA-MB-468/hNotch3 and U2OS/hNotch3, and 3) a negative control cell line (SW900) using an MTS cellular viability indicator (Promega, Madison, Wis.). These cell lines were cultured with increasing concentrations of anti-Notch3 ADCs comprising rat-human chimeric anti-Notch3 antibodies, ch28 and ch75, and humanized anti-Notch3 antibodies, hu28 and hu75, conjugated to various linker-payload combinations of the present invention. As a specificity control for the anti-Notch3-ADCs, non-targeted control-ADCs (huNeg8.8-ADCs or ch2H6-ADCs) were also tested on the same cell lines. After four days, viability of each culture was assessed. IC50 values were calculated by logistic non-linear regression, model #203 with XL fit v4.2 (IDBS, Guildford, Surry, UK) and presented as ng Ab/mL. The drug antibody ratio (DAR) is also provided.
(§2) This process generated the anti-Notch3 cysteine mutant ADCs: hu28-(L443C)-vc0101 and hu28-(L443C/κK183C)-vc0101. The activity of the anti-Notch3 cysteine mutant ADCs were assessed on cell lines endogenously expressing Notch3 protein: HCC2429 (lung cancer) and OVCAR3 (ovarian cancer) using an MTS cellular viability indicator as described in previous Examples.

[3] = test system: MDA-MB-468 (breast cancer); assay: In vitro cytotoxicity (MTS), MDA-MB-468; assay type: cell-based, human; conditions: Table 13; four days; LP = lacked potency
Protocol: as §1

[4] = target: U2OS/hNotch3 (Homo sapiens, UniProt Q9UM47); assay: In vitro cytotoxicity (MTS), U2OS/hNotch3; assay type: cell-based; set-up: U-2 OS cells stably over-expressing human full length Notch3 protein on cell surface; expressed in transfected cells; host or cells: U-2 OS (human osteosarcoma); conditions: Table 13; four days; LP = lacked potency
Protocol: as §1

[5] = test system: OVCAR3 (ovarian cancer); assay: In vitro cytotoxicity (MTS), OVCAR3; assay type: cell-based, human; conditions: Table 13; four days; LP = lacked potency
Protocol: as §1, §2

[6] = target: T1, human Notch1 NRR-Fc; assay: Binding to Notch1 NRR-Fc; conditions: N/B = non-binding
Source text: (§3) Other members of the Notch receptor family play important roles in biological processes. For example, a Notch1 or Notch2 deficiency leads to embryonic death in mouse models. In contrast, a Notch4 deficiency results in no detectable phenotype in mouse models. The closest homologues of the Notch3 NRR region are Notch1 and Notch2 (˜50% homology), and Notch4 is a more distant homologue (˜30% homology). Cross-reactivity of anti-Notch3 antibodies to other members of the Notch family, especially Notch1 and 2, may lead to undesired effects in patients. Therefore, the potential cross-reactivity of r28 and hu28, along with r75 and hu75 to other Notch family members were assessed.
(§4) Expression constructs encoding human Notch1 and Notch2 NRR regions, fused with human IgG1 Fc fragments were stably introduced into CHO-PACE cells. Conditioned media from these cells expressing NRR-Fc fusions were collected. Human Notch2 NRR-Fc and human Notch1 NRR-Fc were purified by protein A affinity followed by size exclusion chromatography (SEC). Purified preparations were dialysed into TBS with 1 mM CaCl2 and analyzed on analytical SEC to be >99% in purity.

[7] = target: T2, human Notch2 NRR-Fc; assay: Binding to Notch2 NRR-Fc; conditions: N/B = non-binding
Source text: as §3, §4

[8] = Thermal stability by differential scanning calorimetry (DSC); assay type: physicochemical; conditions: 0.3 mg/ml in PBS
Protocol: There is a positive correlation between the thermal stability of a protein or protein domain with the overall stability of the protein or protein domain. A higher melting point of a protein or protein domain often provides improved manufacturability and longer shelf life. Differential scanning calorimetry (DSC) was used to assess the thermal stability of hu28 and hu75 versus ch28 and ch75, respectively. Protein samples were diluted in PBS to 0.3 mg/ml in a volume of 250 μl. The corresponding formulation buffer blank was used for the reference sample. Both samples were thoroughly degassed using a MicroCal ThermoVac Sample Degassing and Thermostat (Microcal, Inc., Northampton, Mass.) set to 8° C. Samples were dispensed into the appropriate cells of a MicroCal VP-DSC Capillary Cell MicroCalorimter (MicroCal, Inc., Northampton, Mass.). Samples were equilibrated for 4 minutes at 15° C. and then scanned up to 100° C. at a rate of 100° C. per hour. A filtering period of 20 seconds was selected. Raw data was baseline corrected and the protein concentration was normalized. Origin Software (OriginLab Corporation, Northampton, Mass.) was used to fit the data to an MN2-State Model with an appropriate number of transitions.

[9] = target: T3, human Notch3 NRR recombinant protein; assay: Surface plasmon resonance (Biacore) kinetic analysis; assay type: binding; conditions: antibody captured; 1:1 Langmuir model
Protocol: The kinetic constants of the anti-Notch3 NRR interactions were determined by surface plasmon resonance (Biacore® T100, Biacore Inc., Piscataway, N.J.). Flow cells of a CM5 chip were immobilized with approximately 10,000 response units (RU) of anti-human IgG-Fc (Biacore®) in 10 mM Glycine, pH 5.0 at 10 μl/min for 600 seconds. 10 μg/ml of anti-Notch3 antibodies ch28 and hu28, and ch75 and hu75 were diluted in TBS with 1 mM CaCl2 were captured at 10 μl/min. Association of four concentrations of human Notch3 NRR recombinant protein (from 3.7-100 nM) and a zero concentration (running buffer) at 100 μl/min were recorded for 3 minutes in TBS with 1 mM CaCl2. Dissociation of the complexes was measured for 10 minutes. The surface of the chip was regenerated by injecting 3M MgCl2 with 3 mM EGTA for 60 seconds at 10 μl/min. Curves obtained after subtraction of the reference and buffer signals were fitted to a 1:1 Langmuir binding model with Biacore® T100 Evaluation Software (Biacore®).

[10] = target: T4, MDA-MB-468/hNotch3 (Homo sapiens, UniProt Q9UM47); assay: In vitro cytotoxicity (MTS), MDA-MB-468/hNotch3; assay type: cell-based; conditions: Table 13; four days; LP = lacked potency
T4 construct: cell lines engineered to over-express full length human Notch3 protein: MDA-MB-468/hNotch3 and U2OS/hNotch3; expressed in transfected cells; host or cells: MDA-MB-468
Protocol: as §1

Sequence of U2OS/hNotch3 (Q9UM47 40-2321): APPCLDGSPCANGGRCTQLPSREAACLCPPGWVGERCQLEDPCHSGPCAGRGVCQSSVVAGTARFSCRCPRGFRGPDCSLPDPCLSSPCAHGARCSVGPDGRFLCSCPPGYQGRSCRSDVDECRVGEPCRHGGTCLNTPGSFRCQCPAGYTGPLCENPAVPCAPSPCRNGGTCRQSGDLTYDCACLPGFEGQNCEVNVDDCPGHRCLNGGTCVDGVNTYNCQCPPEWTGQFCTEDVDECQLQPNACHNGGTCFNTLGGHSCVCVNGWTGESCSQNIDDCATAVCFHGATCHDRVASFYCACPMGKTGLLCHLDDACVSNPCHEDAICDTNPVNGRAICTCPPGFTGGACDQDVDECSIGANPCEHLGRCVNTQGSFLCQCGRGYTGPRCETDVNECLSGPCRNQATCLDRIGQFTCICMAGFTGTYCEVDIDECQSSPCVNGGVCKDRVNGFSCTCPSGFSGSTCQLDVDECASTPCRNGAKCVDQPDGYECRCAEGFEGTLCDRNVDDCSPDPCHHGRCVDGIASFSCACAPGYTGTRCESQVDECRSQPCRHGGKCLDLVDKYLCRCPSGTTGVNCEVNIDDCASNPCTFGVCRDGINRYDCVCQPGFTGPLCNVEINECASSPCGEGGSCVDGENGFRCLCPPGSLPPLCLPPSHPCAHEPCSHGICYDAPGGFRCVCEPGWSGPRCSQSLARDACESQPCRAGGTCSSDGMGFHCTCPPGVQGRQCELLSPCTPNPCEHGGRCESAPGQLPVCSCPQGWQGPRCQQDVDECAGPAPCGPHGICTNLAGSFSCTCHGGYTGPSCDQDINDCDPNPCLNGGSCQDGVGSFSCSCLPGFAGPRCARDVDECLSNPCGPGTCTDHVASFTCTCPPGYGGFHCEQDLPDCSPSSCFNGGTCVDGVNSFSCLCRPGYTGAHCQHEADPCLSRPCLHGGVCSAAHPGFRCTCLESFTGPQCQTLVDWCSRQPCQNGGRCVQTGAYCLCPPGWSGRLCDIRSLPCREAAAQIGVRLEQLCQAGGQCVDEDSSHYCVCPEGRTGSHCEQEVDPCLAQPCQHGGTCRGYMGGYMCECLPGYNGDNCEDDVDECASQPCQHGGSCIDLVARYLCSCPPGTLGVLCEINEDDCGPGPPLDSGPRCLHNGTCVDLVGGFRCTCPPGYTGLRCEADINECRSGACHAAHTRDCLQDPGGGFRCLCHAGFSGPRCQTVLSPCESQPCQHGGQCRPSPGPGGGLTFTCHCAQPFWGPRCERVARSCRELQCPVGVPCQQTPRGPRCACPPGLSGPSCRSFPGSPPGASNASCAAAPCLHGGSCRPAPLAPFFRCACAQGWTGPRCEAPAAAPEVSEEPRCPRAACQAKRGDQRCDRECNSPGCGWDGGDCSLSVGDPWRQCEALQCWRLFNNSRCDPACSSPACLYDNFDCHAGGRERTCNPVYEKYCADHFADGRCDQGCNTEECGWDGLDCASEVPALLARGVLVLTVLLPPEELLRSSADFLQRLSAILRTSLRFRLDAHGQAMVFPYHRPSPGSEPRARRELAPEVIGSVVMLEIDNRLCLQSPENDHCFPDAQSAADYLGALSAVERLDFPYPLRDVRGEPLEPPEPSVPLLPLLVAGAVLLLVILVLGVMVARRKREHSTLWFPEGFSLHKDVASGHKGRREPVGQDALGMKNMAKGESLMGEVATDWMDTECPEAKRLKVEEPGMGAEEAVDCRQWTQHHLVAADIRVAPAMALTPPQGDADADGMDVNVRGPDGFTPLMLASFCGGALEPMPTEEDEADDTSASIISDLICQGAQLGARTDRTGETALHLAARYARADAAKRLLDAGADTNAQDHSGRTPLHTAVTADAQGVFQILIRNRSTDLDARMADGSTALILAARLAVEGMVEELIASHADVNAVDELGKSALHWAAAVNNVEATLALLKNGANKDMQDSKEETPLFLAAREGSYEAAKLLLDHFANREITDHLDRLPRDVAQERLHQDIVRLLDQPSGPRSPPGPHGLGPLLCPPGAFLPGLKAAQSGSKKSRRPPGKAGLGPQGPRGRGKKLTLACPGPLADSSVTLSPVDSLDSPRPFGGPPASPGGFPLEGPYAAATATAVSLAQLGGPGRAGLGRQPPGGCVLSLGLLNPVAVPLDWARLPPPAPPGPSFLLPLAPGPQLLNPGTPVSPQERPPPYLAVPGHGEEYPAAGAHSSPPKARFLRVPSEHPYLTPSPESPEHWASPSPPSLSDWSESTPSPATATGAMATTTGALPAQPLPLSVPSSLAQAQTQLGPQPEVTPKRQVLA
T4 sequence (Q9UM47 40-2321): as above

Molecule	growth of N87 gastric xenografts [1]	IC50 (ng Ab/mL) ± S.E.M., HCC2429 [2]	IC50 (ng Ab/mL) ± S.E.M., MDA-MB-468 [3]	IC50 (ng Ab/mL) ± S.E.M., U2OS/hNotch3 [4]	IC50 (ng Ab/mL) ± S.E.M., OVCAR3 [5]	Binding to Notch1 NRR-Fc [6]	Binding to Notch2 NRR-Fc [7]	Tm ± Standard Deviation, CH2 [8]	Tm ± Standard Deviation, CH3 [8]	Tm ± Standard Deviation, Fab [8]	ka [9]	kd [9]	IC50 (ng Ab/mL) ± S.E.M., MDA-MB-468/hNotch3 [10]
B1	inhibited growth of N87 gastric xenografts	671 ± 406.5 ng Ab/mL	8202 ± 2773.0 ng Ab/mL	19 ng Ab/mL	289 ng Ab/mL	–	–	–	–	–	–	–	–
B2	–	–	–	–	–	N/B	N/B	70.20 ± 0.05 °C	84.24 ± 0.07 °C	73.22 ± 0.73 °C	409000 M⁻¹ s⁻¹	0.000249 s⁻¹	–
B3	–	3230 ± 1116.5 ng Ab/mL	5443 ± 2630.9 ng Ab/mL	95 ± 18.2 ng Ab/mL	635 ng Ab/mL	–	–	–	–	–	–	–	4 ± 0.5 ng Ab/mL
